Measured values from patent US20250051437A1 (University of California, published 2025).
Where no end group is shown, it is not given here.

Legend:
[1] = target: T1, human CDH17-mGFP fusion protein overexpressed on HEK293T cells (clone G11) (human, UniProt Q12864 23-832); test: flow cytometry (iQue) on HEK293T CDH17 mGFP clone G11 (human), 0.2 µg Ab
T1 construct: also called HEK293T CDH17mGFP Clone G11; HEK293T Human CDH17mGFP G11; not shown: mGFP fluorescent protein fused to CDH17

[2] = target: T2, mouse CDH17-mGFP fusion protein overexpressed on HEK293T cells (mouse, UniProt Q9R100 26-827); test: flow cytometry on HEK293T mouse CDH17mGFP mass population, 20 µg/ml
T2 construct: also called HEK293T Mouse CDH17mGFP mass; not shown: mGFP fluorescent protein
T2 sequence (Q9R100 26-827): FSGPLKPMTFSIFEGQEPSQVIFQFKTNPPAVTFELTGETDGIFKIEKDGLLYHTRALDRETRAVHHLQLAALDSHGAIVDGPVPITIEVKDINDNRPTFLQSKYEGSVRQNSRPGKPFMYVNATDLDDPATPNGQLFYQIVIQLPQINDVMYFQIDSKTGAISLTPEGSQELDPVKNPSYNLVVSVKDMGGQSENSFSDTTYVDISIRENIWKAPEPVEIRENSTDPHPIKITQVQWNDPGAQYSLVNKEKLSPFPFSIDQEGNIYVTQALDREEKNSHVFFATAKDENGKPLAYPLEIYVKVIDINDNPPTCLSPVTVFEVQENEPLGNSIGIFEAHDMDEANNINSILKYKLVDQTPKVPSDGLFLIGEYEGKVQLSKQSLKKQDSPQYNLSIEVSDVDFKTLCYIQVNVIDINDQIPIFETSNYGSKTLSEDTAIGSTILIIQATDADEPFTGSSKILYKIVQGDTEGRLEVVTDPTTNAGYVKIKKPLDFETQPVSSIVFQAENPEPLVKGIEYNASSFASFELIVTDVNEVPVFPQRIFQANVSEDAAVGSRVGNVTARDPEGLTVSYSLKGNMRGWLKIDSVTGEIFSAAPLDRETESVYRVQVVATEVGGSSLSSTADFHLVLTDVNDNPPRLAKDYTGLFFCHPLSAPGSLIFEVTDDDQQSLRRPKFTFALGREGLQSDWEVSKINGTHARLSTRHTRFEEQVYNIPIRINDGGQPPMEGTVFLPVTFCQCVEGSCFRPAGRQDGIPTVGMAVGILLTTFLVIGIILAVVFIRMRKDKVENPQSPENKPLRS

[3] = target: T2, mouse CDH17-mGFP fusion protein …; test: flow cytometry (BD C6) on HEK293T Mouse CDH17 mGFP cells
Protocol: (§1) To determine relative antigen binding strengths of the humanized antibodies, FACS assays were carried out as essentially described in Example 1. […] Using a BD Biosciences Accuri™ C6 Flow Cytometer (San Jose, CA), antibody binding based on Alexa Fluor® 647 fluorescence was measured in the FL4-H channel and fusion protein overexpression based on GFP fluorescence was measured in the FL1-H channel.

[4] = target: T3, human cadherin-17 (CDH17), endogenously expressed on human cancer cell lines (LS513, SNU-C1, PaTu8988s, … (human, UniProt Q12864 23-832)); test: flow cytometry (iQue) on PATU8988S cells, 0.2 µg Ab
T3 construct: also called LS513 (Colon, CDH17+); HPAF2

[5] = target: T3, human cadherin-17 (CDH17), endogenously …; test: KinExA, cell-based, SNUC1 cells
[6] = target: T4, rat CDH17 fused to moxGFP, overexpressed on HEK293T cells (rat, UniProt P55281 22-827); test: flow cytometry on HEK293T rat CDH17mGFP mass population, 20 µg/ml
T4 construct: whole, on cells; also called HEK293T Rat CDH17mGFP mass pop; rat CDH17-moxGFP
T4 sequence (P55281 22-827): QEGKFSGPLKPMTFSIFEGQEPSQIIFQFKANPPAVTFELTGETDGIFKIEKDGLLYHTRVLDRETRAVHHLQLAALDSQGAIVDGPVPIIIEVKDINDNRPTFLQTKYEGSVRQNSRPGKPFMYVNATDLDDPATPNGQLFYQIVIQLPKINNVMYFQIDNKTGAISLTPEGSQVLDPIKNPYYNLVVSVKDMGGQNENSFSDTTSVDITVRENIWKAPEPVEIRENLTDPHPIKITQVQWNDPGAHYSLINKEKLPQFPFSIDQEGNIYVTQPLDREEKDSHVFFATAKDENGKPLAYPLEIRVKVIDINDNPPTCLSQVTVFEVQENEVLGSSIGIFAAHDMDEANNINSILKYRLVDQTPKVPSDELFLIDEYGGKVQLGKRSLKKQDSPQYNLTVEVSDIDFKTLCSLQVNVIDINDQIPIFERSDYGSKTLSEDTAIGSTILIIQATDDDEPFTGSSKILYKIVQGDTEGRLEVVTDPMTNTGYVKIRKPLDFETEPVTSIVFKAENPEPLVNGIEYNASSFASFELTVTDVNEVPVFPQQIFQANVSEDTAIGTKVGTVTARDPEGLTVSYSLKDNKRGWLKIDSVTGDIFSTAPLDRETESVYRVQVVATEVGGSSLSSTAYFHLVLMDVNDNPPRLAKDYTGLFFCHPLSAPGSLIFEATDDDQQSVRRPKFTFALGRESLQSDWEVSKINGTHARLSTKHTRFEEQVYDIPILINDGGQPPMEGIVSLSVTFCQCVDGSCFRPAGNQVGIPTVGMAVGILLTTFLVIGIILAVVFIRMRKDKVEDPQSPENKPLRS

[7] = target: T4, rat CDH17 fused to moxGFP, …; test: flow cytometry (BD C6) on HEK293T Rat CDH17 moxGFP cells
Protocol: as §1

[8] = target: T5, biotinylated 15-mer peptide 18 of the CDH17 ECD peptide scan (human, also: biotin label, position not given here); test: titration ELISA on biotinylated peptide captured on streptavidin plates
T5 peptide: THNLQVAALDANGII
Protocol: (§2) For the ELISA, 1 μl of each biotinylated peptide plus 99 μl of peptide coating buffer (40% DMSO and 0.05% Tween20 in PBS) was added to a streptavidin-coated microtiter plate well. The plate was incubated overnight at 4° C. without shaking. The plate was then washed 4 times with 300 μl washing buffer (PBS with 0.05% Tween20). 200 μl blocking buffer (PBS with 400 μM biotin and 20% sucrose) was added to each well and the plate incubated for 30 min at room temperature without shaking. After 3 times washing with washing buffer, 300 μl of SuperBlock T20 (TBS) Blocking Buffer (Thermo Scientific, #37536) was applied per well and incubated at room temperature for 1 hour. […]

[9] = target: T6, biotinylated 15-mer peptide 19 of the CDH17 ECD peptide scan (human, also: biotin label, position not given here); test: as above
T6 peptide: QVAALDANGIIVEGP
Protocol: as §2

[10] = target: T1, human CDH17-mGFP fusion protein …; test: flow cytometry (iQue) on HEK293T CDH17 mGFP clone G11 (human), 1 µg Ab
[11] = target: T1, human CDH17-mGFP fusion protein …; test: flow cytometry on HEK293T human CDH17mGFP G11, 20 µg/ml
[12] = target: T7, recombinant CDH17 extracellular domain (ECD) with 6x His tag (human, UniProt Q12864 23-787); test: ELISA on recombinant CDH17 ECD-6xHis
T7 construct: also called Recombinant CDH17 ECD-6xhis tag

[13] = target: T1, human CDH17-mGFP fusion protein …; test: KinExA, cell-based, HEK293T CDH17mGFP clone G11
Protocol: The cell-based antibody affinity (KD) of the anti-CDH17 antibodies was measured by KinExA 4000 (Sapidyne Instrument, Boise, Idaho). Briefly, HEK293T overexpressing CDH17-fluorescent protein fusion (i.e., human CDH17-mGFP, monkey CDH17-mGFP, mouse CDH17-mGFP or rat CDH17-mGFP) were detached with Versene and equilibrated with either 50 pM, 200 pM, 20 nM, or 50 nM antibody in 2% FBS/DMEM at 4° C. overnight. The cell concentration started at 5×10⁶ cells/mL or 1×10⁷ cells/mL and 2-fold serial dilutions were performed up to 10 points. The next day, the cells were centrifuged at 1500 rpm for 10 min and the supernatants were saved. […] In contrast, while the humanized anti-CDH17 antibody, 07-0653-h43, fails to bind mouse CDH17 protein, it binds rat CDH17 protein equally well as to human and monkey CDH17 protein such that its Kp is less than about 1 nM for human, monkey and rat CDH17 proteins with overlapping 95% confidence interval values.

[14] = target: T3, human cadherin-17 (CDH17), endogenously …; test: flow cytometry (iQue) on SNUC1 cells, 1 µg Ab
[15] = target: T3, human cadherin-17 (CDH17), endogenously …; test: flow cytometry on LS513 cells (CDH17+), 20 µg/ml

B1: humanized anti-CDH17 antibody 07-0663-h7 (antibody, human IgG1, kappa, V domains shown)
VH: QVQLVQSGAEVKKPGSSVKISCKVSGYTFTDHTIHWMRQAPGQGLEWIGYIFPRDDIVVYAQKFQGRATLTADKSTSTAYMELSSLRSEDTAVYYCARPPYYYSRNFYFDYWGQGTTLTVSS
VL: DIQMTQSPSSLSASVGDRVTITCRVSSIISSSKLHWYQQKPGKAPKPLIYGTSTLASGVPSRFSGSGSGTDYTLTISSLQPEDFATYYCQQWSNYPFTFGQGTKLEIKR
notes: Human IgG1 / kappa
- Antibody Binding Activity by Flow iQue [1]: 57600
- Cross Reactivity by Flow [2]: 2420
- binding result [3]: no binding (tested: 1 µg)
- Antibody Binding Activity by Flow iQue [4]: 102000
- Kd [5]: 0.157 nM
- Cross Reactivity by Flow [6]: 2160
- binding result [7]: no binding (tested: 1 µg)
- binding result [8]: binds
- binding result [9]: binds
- Antibody Binding Activity by Flow iQue [10]: 172000
- Cross Reactivity by Flow [11]: 57600
- EC50 [12]: 1.22 nM
- Kd [13]: 0.152 nM
- Antibody Binding Activity by Flow iQue [14]: 76100
- Antibody Binding Activity by Flow Cytometry [15]: 74700
